For the assay, the target named is T1, human APJ receptor (hAPJ) (human, UniProt P35414 1-380).
T1 sequence (looked up): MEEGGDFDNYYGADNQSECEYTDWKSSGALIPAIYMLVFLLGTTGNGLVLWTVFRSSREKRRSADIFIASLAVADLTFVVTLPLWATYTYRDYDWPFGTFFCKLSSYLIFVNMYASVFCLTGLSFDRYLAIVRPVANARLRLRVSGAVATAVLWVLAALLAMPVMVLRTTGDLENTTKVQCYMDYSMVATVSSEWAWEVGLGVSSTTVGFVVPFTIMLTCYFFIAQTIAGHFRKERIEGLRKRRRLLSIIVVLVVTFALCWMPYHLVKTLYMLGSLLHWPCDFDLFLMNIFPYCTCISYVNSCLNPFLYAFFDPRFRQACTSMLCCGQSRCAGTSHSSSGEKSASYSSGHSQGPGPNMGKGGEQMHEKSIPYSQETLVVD
The assay can be described thus: cell-based or functional assay.

Bridges are numbered along the chain shown (N, C = ends). Where no end group is shown, it is not given here. [ ]: non-standard residue; d: D form. The star is where a group is joined. Palmitoyl = CCCCCCCCCCCCCCCC(=O)*; Cha = N[C@@H](CC1CCCCC1)C(=O)O; pGlu = O=C1CC[C@@H](C(=O)O)N1; NHPhenethyl = c1ccc(CCN*)cc1; Nle = CCCC[C@H](N)C(=O)O; Api = NC1(C(=O)O)CCNCC1; AEEA = NCCOCCOCC(=O)O; Aib = CC(C)(N)C(=O)O; Inp = O=C(O)C1CCNCC1

B1: Example 12: pE-R-P-R-L-C-H-K-G-P-Nle-C-Phenethylamine (peptide)
peptide: [pGlu]RPRLCHKGP[Nle]C-NHPhenethyl
modifications: disulfide 6-12
As for B1, the “hAPJ Ca2+ Flux EC50” value is 2.07 nM.

B2: Example 24: Palmitoyl-O2Oc-Q-R-P-R-L-C-H-K-G-P-Nle-C-F-OH (peptide)
peptide: Palmitoyl-[AEEA]QRPRLCHKGP[Nle]CF-OH
modifications: disulfide 7-13
SMILES: CCCCCCCCCCCCCCCC(=O)NCCOCCOCC(=O)N[C@@H](CCC(N)=O)C(=O)N[C@@H](CCCNC(=N)N)C(=O)N1CCC[C@H]1C(=O)N[C@@H](CCCNC(=N)N)C(=O)N[C@@H](CC(C)C)C(=O)N[C@H]1CSSC[C@@H](C(=O)N[C@@H](Cc2ccccc2)C(=O)O)NC(=O)[C@H](CCCC)NC(=O)[C@@H]2CCCN2C(=O)CNC(=O)[C@H](CCCCN)NC(=O)[C@H](Cc2c[nH]cn2)NC1=O
For B2, the “hAPJ Ca2+ Flux EC50” value is 32.6 nM.

B3: Example 22: pE-R-P-R-L-C-H-K-G-P-Nle-C-K(Palmitoyl)-OH (peptide)
peptide: [pGlu]RPRLCHKGP[Nle]CK(Palmitoyl)-OH
modifications: disulfide 6-12
SMILES: CCCCCCCCCCCCCCCC(=O)NCCCC[C@H](NC(=O)[C@@H]1CSSC[C@H](NC(=O)[C@H](CC(C)C)NC(=O)[C@H](CCCNC(=N)N)NC(=O)[C@@H]2CCCN2C(=O)[C@H](CCCNC(=N)N)NC(=O)[C@@H]2CCC(=O)N2)C(=O)N[C@@H](Cc2c[nH]cn2)C(=O)N[C@@H](CCCCN)C(=O)NCC(=O)N2CCC[C@H]2C(=O)N[C@@H](CCCC)C(=O)N1)C(=O)O
Take B3: the “hAPJ Ca2+ Flux EC50” value stood at 42 nM.

B4: Example 17: H-R-R-P-R-L-C-H-K-G-P-Nle-C-F-OH (peptide)
peptide: H-RRPRLCHKGP[Nle]CF-OH
modifications: disulfide 6-12
SMILES: CCCC[C@@H]1NC(=O)[C@@H]2CCCN2C(=O)CNC(=O)[C@H](CCCCN)NC(=O)[C@H](Cc2c[nH]cn2)NC(=O)[C@@H](NC(=O)[C@H](CC(C)C)NC(=O)[C@H](CCCNC(=N)N)NC(=O)[C@@H]2CCCN2C(=O)[C@H](CCCNC(=N)N)NC(=O)[C@@H](N)CCCNC(=N)N)CSSC[C@@H](C(=O)N[C@@H](Cc2ccccc2)C(=O)O)NC1=O
As to B4, the “hAPJ Ca2+ Flux EC50” value stood at 3.29 nM.

B5: Example 21: pE-R-P-R-L-C-H-(4-NH-Isn)-G-P-Nle-C-F-OH (peptide)
peptide: [pGlu]RPRLCH[Api]GP[Nle]CF-OH
modifications: disulfide 6-12
SMILES: CCCC[C@@H]1NC(=O)[C@@H]2CCCN2C(=O)CNC(=O)C2(CCNCC2)NC(=O)[C@H](Cc2c[nH]cn2)NC(=O)[C@@H](NC(=O)[C@H](CC(C)C)NC(=O)[C@H](CCCNC(=N)N)NC(=O)[C@@H]2CCCN2C(=O)[C@H](CCCNC(=N)N)NC(=O)[C@@H]2CCC(=O)N2)CSSC[C@@H](C(=O)N[C@@H](Cc2ccccc2)C(=O)O)NC1=O
With B5, the “hAPJ Ca2+ Flux EC50” value stood at 75.8 nM.

B6: Example 13: pE-R-P-R-L-C-H-K-G-P-Nle-C-f-OH (peptide)
peptide: [pGlu]RPRLCHKGP[Nle]C[dF]-OH
modifications: disulfide 6-12
SMILES: CCCC[C@@H]1NC(=O)[C@@H]2CCCN2C(=O)CNC(=O)[C@H](CCCCN)NC(=O)[C@H](Cc2c[nH]cn2)NC(=O)[C@@H](NC(=O)[C@H](CC(C)C)NC(=O)[C@H](CCCNC(=N)N)NC(=O)[C@@H]2CCCN2C(=O)[C@H](CCCNC(=N)N)NC(=O)[C@@H]2CCC(=O)N2)CSSC[C@@H](C(=O)N[C@H](Cc2ccccc2)C(=O)O)NC1=O
B6: the “hAPJ Ca2+ Flux EC50” value worked out at 2.26 nM.

B7: Example 19: pE-R-P-R-L-C-H-F-G-P-Nle-C-Phenethylamine (peptide)
peptide: [pGlu]RPRLCHFGP[Nle]C-NHPhenethyl
modifications: disulfide 6-12
SMILES: CCCC[C@@H]1NC(=O)[C@@H]2CCCN2C(=O)CNC(=O)[C@H](Cc2ccccc2)NC(=O)[C@H](Cc2c[nH]cn2)NC(=O)[C@@H](NC(=O)[C@H](CC(C)C)NC(=O)[C@H](CCCNC(=N)N)NC(=O)[C@@H]2CCCN2C(=O)[C@H](CCCNC(=N)N)NC(=O)[C@@H]2CCC(=O)N2)CSSC[C@@H](C(=O)NCCc2ccccc2)NC1=O
As to B7, the “hAPJ Ca2+ Flux EC50” value came to 8.46 nM.

B8: Example 10: pE-R-P-R-L-C-Aib-K-G-P-Nle-C-f-OH (peptide)
peptide: [pGlu]RPRLC[Aib]KGP[Nle]C[dF]-OH
modifications: disulfide 6-12
SMILES: CCCC[C@@H]1NC(=O)[C@@H]2CCCN2C(=O)CNC(=O)[C@H](CCCCN)NC(=O)C(C)(C)NC(=O)[C@@H](NC(=O)[C@H](CC(C)C)NC(=O)[C@H](CCCNC(=N)N)NC(=O)[C@@H]2CCCN2C(=O)[C@H](CCCNC(=N)N)NC(=O)[C@@H]2CCC(=O)N2)CSSC[C@@H](C(=O)N[C@H](Cc2ccccc2)C(=O)O)NC1=O
B8: the “hAPJ Ca2+ Flux EC50” value worked out at 2.54 nM.

B9: Example 14: pE-R-P-R-Cha-C-H-K-G-P-Cha-C-F-OH (peptide)
peptide: [pGlu]RPR[Cha]CHKGP[Cha]CF-OH
modifications: disulfide 6-12
SMILES: N=C(N)NCCC[C@H](NC(=O)[C@@H]1CCCN1C(=O)[C@H](CCCNC(=N)N)NC(=O)[C@@H]1CCC(=O)N1)C(=O)N[C@@H](CC1CCCCC1)C(=O)N[C@H]1CSSC[C@@H](C(=O)N[C@@H](Cc2ccccc2)C(=O)O)NC(=O)[C@H](CC2CCCCC2)NC(=O)[C@@H]2CCCN2C(=O)CNC(=O)[C@H](CCCCN)NC(=O)[C@H](Cc2c[nH]cn2)NC1=O
For B9, the “hAPJ Ca2+ Flux EC50” value amounted to 8.83 nM.

B10: Example 23: pE-R-P-R-L-C-K(Palmitoyl)-K-G-P-Nle-C-F-OH (peptide)
peptide: [pGlu]RPRLCK(Palmitoyl)KGP[Nle]CF-OH
modifications: disulfide 6-12
SMILES: CCCCCCCCCCCCCCCC(=O)NCCCC[C@@H]1NC(=O)[C@@H](NC(=O)[C@H](CC(C)C)NC(=O)[C@H](CCCNC(=N)N)NC(=O)[C@@H]2CCCN2C(=O)[C@H](CCCNC(=N)N)NC(=O)[C@@H]2CCC(=O)N2)CSSC[C@@H](C(=O)N[C@@H](Cc2ccccc2)C(=O)O)NC(=O)[C@H](CCCC)NC(=O)[C@@H]2CCCN2C(=O)CNC(=O)[C@H](CCCCN)NC1=O
For the molecule B10, the “hAPJ Ca2+ Flux EC50” value turned out to be 52.4 nM.

B11: Example 18: H-Isn-R-P-R-L-C-H-K-G-P-Nle-C-F-OH (peptide)
peptide: H-[Inp]RPRLCHKGP[Nle]CF-OH
modifications: disulfide 6-12
SMILES: CCCC[C@@H]1NC(=O)[C@@H]2CCCN2C(=O)CNC(=O)[C@H](CCCCN)NC(=O)[C@H](Cc2c[nH]cn2)NC(=O)[C@@H](NC(=O)[C@H](CC(C)C)NC(=O)[C@H](CCCNC(=N)N)NC(=O)[C@@H]2CCCN2C(=O)[C@H](CCCNC(=N)N)NC(=O)C2CCNCC2)CSSC[C@@H](C(=O)N[C@@H](Cc2ccccc2)C(=O)O)NC1=O
As to B11, the “hAPJ Ca2+ Flux EC50” value stood at 1.62 nM.

B12: Example 16: H-R-P-R-L-C-H-K-G-P-Nle-C-F-OH (peptide)
peptide: H-RPRLCHKGP[Nle]CF-OH
modifications: disulfide 5-11
SMILES: CCCC[C@@H]1NC(=O)[C@@H]2CCCN2C(=O)CNC(=O)[C@H](CCCCN)NC(=O)[C@H](Cc2c[nH]cn2)NC(=O)[C@@H](NC(=O)[C@H](CC(C)C)NC(=O)[C@H](CCCNC(=N)N)NC(=O)[C@@H]2CCCN2C(=O)[C@@H](N)CCCNC(=N)N)CSSC[C@@H](C(=O)N[C@@H](Cc2ccccc2)C(=O)O)NC1=O
On to B12, for which the “hAPJ Ca2+ Flux EC50” value was 1.43 nM.

B13: Example 11: p-Isn-R-P-R-L-C-Aib-K-G-P-Nle-C-f-OH (peptide)
peptide: [Inp]RPRLC[Aib]KGP[Nle]C[dF]-OH
modifications: disulfide 6-12; N-terminus assumed
SMILES: CCCC[C@@H]1NC(=O)[C@@H]2CCCN2C(=O)CNC(=O)[C@H](CCCCN)NC(=O)C(C)(C)NC(=O)[C@@H](NC(=O)[C@H](CC(C)C)NC(=O)[C@H](CCCNC(=N)N)NC(=O)[C@@H]2CCCN2C(=O)[C@H](CCCNC(=N)N)NC(=O)C2CCNCC2)CSSC[C@@H](C(=O)N[C@H](Cc2ccccc2)C(=O)O)NC1=O
As to B13, the “hAPJ Ca2+ Flux EC50” value was found to be 3.52 nM.

B14: Example 1: pE-R-P-R-L-K-H-F-G-P-Nle-D-Phenethylamine (peptide)
peptide: [pGlu]RPRLKHFGP[Nle]D-NHPhenethyl
modifications: lactam 6-12
SMILES: CCCC[C@@H]1NC(=O)[C@@H]2CCCN2C(=O)CNC(=O)[C@H](Cc2ccccc2)NC(=O)[C@H](Cc2c[nH]cn2)NC(=O)[C@@H](NC(=O)[C@H](CC(C)C)NC(=O)[C@H](CCCNC(=N)N)NC(=O)[C@@H]2CCCN2C(=O)[C@H](CCCNC(=N)N)NC(=O)[C@@H]2CCC(=O)N2)CCCCNC(=O)C[C@@H](C(=O)NCCc2ccccc2)NC1=O
Regarding B14, the “hAPJ Ca2+ Flux EC50” value was 90.1 nM.

B15: Example 15: pE-R-P-R-L-C-F-K-G-P-Nle-C-F-OH (peptide)
peptide: [pGlu]RPRLCFKGP[Nle]CF-OH
modifications: disulfide 6-12
SMILES: CCCC[C@@H]1NC(=O)[C@@H]2CCCN2C(=O)CNC(=O)[C@H](CCCCN)NC(=O)[C@H](Cc2ccccc2)NC(=O)[C@@H](NC(=O)[C@H](CC(C)C)NC(=O)[C@H](CCCNC(=N)N)NC(=O)[C@@H]2CCCN2C(=O)[C@H](CCCNC(=N)N)NC(=O)[C@@H]2CCC(=O)N2)CSSC[C@@H](C(=O)N[C@@H](Cc2ccccc2)C(=O)O)NC1=O
In the case of B15, the “hAPJ Ca2+ Flux EC50” value came out at 3.53 nM.

B16: Example 2: pE-R-P-R-L-K-H-F-G-P-Nle-E-Phenethylamine (peptide)
peptide: [pGlu]RPRLKHFGP[Nle]E
modifications: lactam 6-12 (inferred); not fully specified (C-terminus); printed as pE-R-P-R-L-K-H-F-G-P-Nle-E-Phenethylamine
As to B16, the “hAPJ Ca2+ Flux EC50” value stood at 133 nM.

B17: Example 20: pE-R-P-R-L-C-H-K-Aib-P-Nle-C-F-OH (peptide)
peptide: [pGlu]RPRLCHK[Aib]P[Nle]CF-OH
modifications: disulfide 6-12
SMILES: CCCC[C@@H]1NC(=O)[C@@H]2CCCN2C(=O)C(C)(C)NC(=O)[C@H](CCCCN)NC(=O)[C@H](Cc2c[nH]cn2)NC(=O)[C@@H](NC(=O)[C@H](CC(C)C)NC(=O)[C@H](CCCNC(=N)N)NC(=O)[C@@H]2CCCN2C(=O)[C@H](CCCNC(=N)N)NC(=O)[C@@H]2CCC(=O)N2)CSSC[C@@H](C(=O)N[C@@H](Cc2ccccc2)C(=O)O)NC1=O
Regarding B17, the “hAPJ Ca2+ Flux EC50” value was determined as 173 nM.

Source of the values: patent US8673848 (Novartis, dated 2014).
